This is an account of results in paper PMC5057313.

The target of the experiment is Arabidopsis ferredoxin : thioredoxin reductase catalytic subunit (AtFTRc), prey in pGADT7 (Arabidopsis thaliana) (UniProt Q9SJ89).
Chain of UniProt Q9SJ89 (Q9SJ89 whole entry): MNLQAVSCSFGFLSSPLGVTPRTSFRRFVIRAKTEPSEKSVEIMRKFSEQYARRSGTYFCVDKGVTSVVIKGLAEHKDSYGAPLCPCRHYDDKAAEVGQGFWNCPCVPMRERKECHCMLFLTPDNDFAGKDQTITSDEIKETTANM

“MjTTL5 (transthyretin-like protein 5 of Meloidogyne javanica), bait in pGBKT7 (natural protein)” showed an H2O2 consumption of wild-type Arabidopsis protein with MjTTL5 against the MjTTL5-free treatment (only 1.8-fold in the AtFTRc mutants; Fig. S16c) of 2.5 fold.
